Test in all cases: BLI
(In general: In BLI a coated tip is dipped into the sample, and binding shifts an interference pattern.)

Assay [1] has as its target T1, biotinylated monomeric MOW15–22 RBD (MOW15–22 (bat MERSr-CoV sampled in …)).
Assay [2] addresses T2, PnNL2018B S1-hFc (PnNL2018B (bat MERSr-CoV sampled in …)).
The target of assay [3] is T2, PnNL2018B S1-hFc. The source holds these as a separate data set.
Assay [4] addresses T1, biotinylated monomeric MOW15–22 RBD. The source holds these as a separate data set.

Residue numbers refer to the chain shown, from its start. Like-named read-outs stand apart in the source and are kept apart here.

B1: dimeric P.dav ACE2 ectodomain (residues 17–728, avi-His8) (domain or fragment)
chain: AQSTTEELAKTFLEKFNHEAEELSYQSSLASWNYNTNITDENVQKMNEAGAKWSAFYEEQSKLAKTYPLAEIHNTTVKRQLQALQQSGSSVLSADKSQRLNTILNAMSTIYSTGKACNPNNPQECLLLEPGLDDIMENSKDYNERLWAWEGWRAEVGKQLRPLYEEYVALKNEMARANNYEDYGDYWRGDYEEEWTDGYNYSRSQLIKDVEHTFTQIKPLYQHLHAYVRAKLMDTYPSRISPTGCLPAHLLGDMWGRFWTNLYPLTVPFGQKPNIDVTDAMVNQSWDARRIFKEAEKFFVSVGLPNMTQGFWENSMLTEPGDSRKVVCHPTAWDLGKGDFRIKMCTKVTMDDFLTAHHEMGHIQYDMAYAVQPFLLRNGANEGFHEAVGEIMSLSAATPNHLKTIGLLSPGFSEDSETEINFLLKQALTIVGTLPFTYMLEKWRWMVFKGEIPKEQWMQKWWEMKREIVGVVEPVPHDETYCDPASLFHVANDYSFIRYYTRTIYQFQFQEALCRIAKHEGPLHKCDISNSSEAGKKLLQMLTLGKSKPWTLALEHVVGEKKMNVTPLLKYFEPLFTWLKEQNRNSFVGWNTDWRPYADQSIKVRISLKSALGDEAYEWNDNEMYLFRSSVAYAMREYFSKVKNQTIPFVEDNVWVSNLKPRISFNFFVTASKNVSDVIPRSEVEEAIRMSRSRINDAFRLDDNSLEFLGIQ
As a reminder, the koff is the first-order rate constant of dissociation. Read a low koff as slow dissociation. For B1, the koff in assay [1] worked out at 0.000712 s⁻¹.

B2: soluble dimeric P.nat ACE2 ectodomain (residues 18–739, twin-strep-3×FLAG) (domain or fragment)
chain: QSLTTEEKAREFLDKFNSEAENWSHESALASWDYNTNINDKNAQKMNEADSKWSAFYKEHSKLAQGFPLQEIQNSTIKLQLQILQQNGSSVLTAEKSKRLSTILTTMSTIYSTGKVCNPNNPQQCFTLSGLEDIMEKSKDYHQRLWIWEGWRSEVGKQLRPLYEEYVALKNEMARGNNYKDYGDYWRGDYETEGGDGYNYSRNHLIEDVDRIFLEIKPLYEQLHAYVRAKLMNAYPSRISPTGCLPAHLLGDMWGRFWTNLYNLTVPFEKKQNIDVTDTMKKQSWDAEKIFKEAEKFYLSVGLHNMTPEFWNNSMLTEPSDGRQVVCHPTAWDLGKNDFRIKMCTKVTMDDFLTAHHEMGHIQYDMAYAKQPYLLRNGANEGFHEAVGEVMSLSVATPKHLKGMGLLPSNFSEDCETEINFLLKQALNIVGTLPFTYMLEKWRWMVFEGKIPKEQWMEKWWEMKREIVGVVEPLPHDETYCDPASLFHVANDYSFIRYFTRTILEFQFQEALCQIANHTGPLHKCDISNSTEAGKQLKNMLELGKSKPWTFALEQIARTKEMDAKPLLNYFKPLFSWLKEQNGNSVGWSADWSPYSEQSIKVRISLKSALGEKAYEWNDNEMYLFRSSVAYAMRVYFLKVKNETIPFRAEDVWVSDEKIRVSFKFFVTSPTNVSDIIPRSEVEDAIRMSRGRINDAFRLDDKTLEFLGIQPTLGPPYQPPVT
As usually defined, the Kd is a measure of binding affinity in units of concentration. A higher Kd goes with a looser complex. With B2, in assay [2], binding was characterised by a dissociation constant (Kd) of 183 nM and the koff was 0.00727 s⁻¹.

B3: soluble dimeric P.nat.M1 ACE2 ectodomain (twin-strep-3×FLAG) (domain or fragment)
chain: B2 chain with V390I, V395A, G403D, M404L, P408A, S409Q, F411Y, S412P, C415Y
As to B3, in assay [3], the Kd was 16.9 nM and the koff turned out to be 0.00179 s⁻¹.

B4: monomeric P.dav ACE2 ectodomain (residues 17–613, avi-His8) (domain or fragment)
chain: AQSTTEELAKTFLEKFNHEAEELSYQSSLASWNYNTNITDENVQKMNEAGAKWSAFYEEQSKLAKTYPLAEIHNTTVKRQLQALQQSGSSVLSADKSQRLNTILNAMSTIYSTGKACNPNNPQECLLLEPGLDDIMENSKDYNERLWAWEGWRAEVGKQLRPLYEEYVALKNEMARANNYEDYGDYWRGDYEEEWTDGYNYSRSQLIKDVEHTFTQIKPLYQHLHAYVRAKLMDTYPSRISPTGCLPAHLLGDMWGRFWTNLYPLTVPFGQKPNIDVTDAMVNQSWDARRIFKEAEKFFVSVGLPNMTQGFWENSMLTEPGDSRKVVCHPTAWDLGKGDFRIKMCTKVTMDDFLTAHHEMGHIQYDMAYAVQPFLLRNGANEGFHEAVGEIMSLSAATPNHLKTIGLLSPGFSEDSETEINFLLKQALTIVGTLPFTYMLEKWRWMVFKGEIPKEQWMQKWWEMKREIVGVVEPVPHDETYCDPASLFHVANDYSFIRYYTRTIYQFQFQEALCRIAKHEGPLHKCDISNSSEAGKKLLQMLTLGKSKPWTLALEHVVGEKKMNVTPLLKYFEPLFTWLKEQNRNSFVGWNTDWRPY
B4 returned a koff in assay [1] of 0.0567 s⁻¹.

B5: dimeric P.nat ACE2 ectodomain (residues 17–729, avi-His8) (domain or fragment)
chain: AQSLTTEEKAREFLDKFNSEAENWSHESALASWDYNTNINDKNAQKMNEADSKWSAFYKEHSKLAQGFPLQEIQNSTIKLQLQILQQNGSSVLTAEKSKRLSTILTTMSTIYSTGKVCNPNNPQQCFTLSGLEDIMEKSKDYHQRLWIWEGWRSEVGKQLRPLYEEYVALKNEMARGNNYKDYGDYWRGDYETEGGDGYNYSRNHLIEDVDRIFLEIKPLYEQLHAYVRAKLMNAYPSRISPTGCLPAHLLGDMWGRFWTNLYNLTVPFEKKQNIDVTDTMKKQSWDAEKIFKEAEKFYLSVGLHNMTPEFWNNSMLTEPSDGRQVVCHPTAWDLGKNDFRIKMCTKVTMDDFLTAHHEMGHIQYDMAYAKQPYLLRNGANEGFHEAVGEVMSLSVATPKHLKGMGLLPSNFSEDCETEINFLLKQALNIVGTLPFTYMLEKWRWMVFEGKIPKEQWMEKWWEMKREIVGVVEPLPHDETYCDPASLFHVANDYSFIRYFTRTILEFQFQEALCQIANHTGPLHKCDISNSTEAGKQLKNMLELGKSKPWTFALEQIARTKEMDAKPLLNYFKPLFSWLKEQNGNSVGWSADWSPYSEQSIKVRISLKSALGEKAYEWNDNEMYLFRSSVAYAMRVYFLKVKNETIPFRAEDVWVSDEKIRVSFKFFVTSPTNVSDIIPRSEVEDAIRMSRGRINDAFRLDDKTLEFLGIQPT
On to B5, for which, in assay [4], the off-rate constant (koff) turned out to be 0.000301 s⁻¹.

(Values after paper PMC12360793 (2025).)
